In paper PMC8091058, “Distinct intramolecular interactions regulate autoinhibition of vinculin binding in αT-catenin and αE-catenin” (The Journal of Biological Chemistry, 2021):
Changes are numbered by the printed parent chain. In names and notes the source's numbering stands. Each block holds one binder with its values, some of them ahead of it.

Tests used:
[1] = target: the molecule itself; test: SEC; analytical SEC of 30 μM protein
[2] = target: T1, vinculin D1 (aa 1–259) (UniProt P12003 1-259); test: ITC; vinculin D1 injected into αT-catenin or αE-catenin fragment (or αT-catenin head–β-catenin complex) in the cell; 25 °C; 20 mM Hepes pH 8.0, 150 mM NaCl, 1 mM TCEP; details: both partners purified
T1 construct: vinculin D1 fragment, aa 1-259, the first 2 four-helix bundles; in pGEX-TEV; also called vinculin aa 1 to 259 (D1); vinculin N-terminus; source: E. coli BL21-Gold, purified (glutathione-agarose, TEV cleavage, Mono Q or Mono S, S200)
T1 sequence (looked up): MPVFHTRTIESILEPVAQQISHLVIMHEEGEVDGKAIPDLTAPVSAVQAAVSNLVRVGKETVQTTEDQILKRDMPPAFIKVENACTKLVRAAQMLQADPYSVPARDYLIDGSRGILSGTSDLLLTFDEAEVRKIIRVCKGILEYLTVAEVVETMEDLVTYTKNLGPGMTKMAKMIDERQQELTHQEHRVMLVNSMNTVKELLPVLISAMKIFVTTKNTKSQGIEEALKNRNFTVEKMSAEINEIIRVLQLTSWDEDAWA

[3] = target: T2, αT-catenin head region (aa 1–659) (Mus musculus, UniProt Q65CL1 1-659); test: ITC; β-catenin (110-150 μM) or β-catenin–Ncad_(cyto) complex (103-158 μM) injected into αT-catenin fragment in the cell; 25 °C; 20 mM Hepes pH 8.0, 150 mM NaCl, 1 mM TCEP; details: both partners purified
T2 construct: αT-catenin, Mus musculus, head region (N- and M-domains), aa 1-659; in pGEX-TEV; also called αT-catenin head (1–659); αT-catenin N1-M3 (aa 1–659); source: E. coli BL21-Gold, purified (glutathione-agarose, TEV cleavage, Mono Q or Mono S, S200)
T2 sequence (looked up): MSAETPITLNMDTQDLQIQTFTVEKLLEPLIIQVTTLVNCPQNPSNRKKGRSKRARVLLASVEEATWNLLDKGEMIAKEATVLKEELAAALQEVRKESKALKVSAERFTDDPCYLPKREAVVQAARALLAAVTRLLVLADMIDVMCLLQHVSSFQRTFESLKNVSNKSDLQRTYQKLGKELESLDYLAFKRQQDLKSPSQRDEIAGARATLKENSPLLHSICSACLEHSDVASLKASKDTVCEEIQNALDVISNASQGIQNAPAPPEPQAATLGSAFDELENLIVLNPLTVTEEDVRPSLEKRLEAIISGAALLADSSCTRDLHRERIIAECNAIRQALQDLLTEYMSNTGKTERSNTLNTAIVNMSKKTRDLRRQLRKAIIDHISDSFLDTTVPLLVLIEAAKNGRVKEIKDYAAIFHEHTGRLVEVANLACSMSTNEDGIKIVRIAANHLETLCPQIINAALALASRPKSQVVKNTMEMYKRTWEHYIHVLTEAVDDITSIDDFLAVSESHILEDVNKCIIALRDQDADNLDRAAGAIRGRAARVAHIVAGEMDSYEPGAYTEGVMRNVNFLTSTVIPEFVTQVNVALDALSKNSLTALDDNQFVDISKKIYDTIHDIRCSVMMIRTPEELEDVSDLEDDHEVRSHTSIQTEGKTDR

[4] = target: T3, αT-catenin N1-N2 (aa 1–259) (Mus musculus, UniProt Q65CL1 1-259); test: as above; details: both partners purified
T3 construct: αT-catenin, Mus musculus, N1-N2, aa 1-259; in pGEX-TEV; also called αT-catenin WT N1-N2; αT-catenin N1-N2 (1–259); source: E. coli BL21-Gold, purified (glutathione-agarose, TEV cleavage, Mono Q or Mono S, S200)
T3 sequence (looked up): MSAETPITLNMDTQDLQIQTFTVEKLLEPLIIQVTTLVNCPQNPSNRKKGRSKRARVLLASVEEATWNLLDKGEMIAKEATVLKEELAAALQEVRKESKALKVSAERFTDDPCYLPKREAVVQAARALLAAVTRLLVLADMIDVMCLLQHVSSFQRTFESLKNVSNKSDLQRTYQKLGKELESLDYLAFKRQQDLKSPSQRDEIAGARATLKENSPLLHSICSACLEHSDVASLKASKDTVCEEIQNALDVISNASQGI

B1: αT-catenin V94D N1-N2 (domain or fragment, Mus musculus, UniProt Q65CL1 1-259, looked up)
chain: T3 sequence (looked up) with V94D
notes: αT-catenin N1-N2 (aa 1-259) with V94D, a point mutation linked to arrhythmogenic ventricular cardiomyopathy in humans; also called V94D mutant; source: E. coli BL21-Gold, purified (glutathione-agarose, TEV cleavage, Mono Q or Mono S, S200)
stoichiometry N [1]: 2

Kd [2]: 31.9 ± 9.1 nM
B2: αE-catenin M1-M2 (aa 273–510) (domain or fragment, Mus musculus, UniProt P26231 273-510, looked up)
chain: GSGGELAYALNNFDKQIIVDPLSFSEERFRPSLEERLESIISGAALMADSSCTRDDRRERIVAECNAVRQALQDLLSEYMGNAGRKERSDALNSAIDKMTKKTRDLRRQLRKAVMDHVSDSFLETNVPLLVLIEAAKNGNEKEVKEYAQVFREHANKLIEVANLACSISNNEEGVKLVRMSASQLEALCPQVINAALALAAKPQSKLAQENMDLFKEQWEKQVRVLTDAVDDITSIDD
notes: αE-catenin, Mus musculus, M1-M2, aa 273-510; in pGEX-TEV; also called αE-catenin M1-M2 (273–510); source: E. coli BL21-Gold, purified (glutathione-agarose, TEV cleavage, Mono Q or Mono S, S200)

dH [3]: -27 ± 0.2 kcal/mol | dH [4]: -18.9 ± 1 kcal/mol
B3: β-catenin–N-cadherin cytoplasmic tail complex (complex)
chain 1: MATQADLMELDMAMEPDRKAAVSHWQQQSYLDSGIHSGATTTAPSLSGKGNPEEEDVDTSQVLYEWEQGFSQSFTQEQVADIDGQYAMTRAQRVRAAMFPETLDEGMQIPSTQFDAAHPTNVQRLAEPSQMLKHAVVNLINYQDDAELATRAIPELTKLLNDEDQVVVNKAAVMVHQLSKKEASRHAIMRSPQMVSAIVRTMQNTNDVETARCTAGTLHNLSHHREGLLAIFKSGGIPALVKMLGSPVDSVLFYAITTLHNLLLHQEGAKMAVRLAGGLQKMVALLNKTNVKFLAITTDCLQILAYGNQESKLIILASGGPQALVNIMRTYTYEKLLWTTSRVLKVLSVCSSNKPAIVEAGGMQALGLHLTDPSQRLVQNCLWTLRNLSDAATKQEGMEGLLGTLVQLLGSDDINVVTCAAGILSNLTCNNYKNKMMVCQVGGIEALVRTVLRAGDREDITEPAICALRHLTSRHQEAEMAQNAVRLHYGLPVVVKLLHPPSHWPLIKATVGLIRNLALCPANHAPLREQGAIPRLVQLLVRAHQDTQRRTSMGGTQQQFVEGVRMEEIVEGCTGALHILARDVHNRIVIRGLNTIPLFVQLLYSPIENIQRVAAGVLCELAQDKEAAEAIEAEGATAPLTELLHSRNEGVATYAAAVLFRMSEDKPQDYKKRLSVELTSSLFRTEPMAWNETADLGLDIGAQGEALGYRQDDPSYRSFHSGGYGQDALGMDPMMEHEMGGHHPGADYPVDGLPDLGHAQDLMDGLPPGDSNQLAWFDTDL
chain 2: MKRRDKERQAKQLLIDPEDDVRDNILKYDEEGGGEEDQDYDLSQLQQPDTVEPDAIKPVGIRRLDERPIHAEPQYPVRSAAPHPGDIGDFINEGLKAADNDPTAPPYDSLLVFDYEGSGSTAGSLSSLNSSSSGGDQDYDYLNDWGPRFKKLADMYGGGDD
notes: β-catenin, Mus musculus, full length; N-cadherin cytoplasmic tail (Ncad_(cyto)); the methods name no plasmid for the N-cadherin tail; also called β-catenin–Ncad_(cyto); β-cat–Ncad_(cyto); source: β-catenin: E. coli BL21-Gold, purified
